In paper PMC9482650, “Quantitative fragmentomics allow affinity mapping of interactomes” (Nature Communications, 2022):

T1: HTRA3, P83110
T1 sequence (P83110 354-453, limits assumed, looked up): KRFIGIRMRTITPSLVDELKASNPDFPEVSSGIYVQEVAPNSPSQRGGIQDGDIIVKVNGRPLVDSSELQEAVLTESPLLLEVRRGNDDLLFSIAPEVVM

T2: LIN7C, Q9NUP9
T2 sequence (Q9NUP9 88-185, limits assumed, looked up): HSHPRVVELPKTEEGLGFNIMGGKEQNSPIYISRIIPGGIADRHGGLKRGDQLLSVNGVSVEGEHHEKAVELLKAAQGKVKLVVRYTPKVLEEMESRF

T3: SNTA1, Q13424
T3 sequence (Q13424 82-180, limits assumed, looked up): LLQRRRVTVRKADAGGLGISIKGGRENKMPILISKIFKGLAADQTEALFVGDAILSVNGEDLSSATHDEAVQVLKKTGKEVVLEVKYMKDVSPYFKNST

T4: DLG3_3, Q92796
T4 sequence (Q92796 374-475, limits assumed, looked up): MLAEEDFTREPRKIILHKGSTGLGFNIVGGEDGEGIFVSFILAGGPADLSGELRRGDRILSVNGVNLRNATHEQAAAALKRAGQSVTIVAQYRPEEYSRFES

T5: LIN7B, Q9HAP6
T5 sequence (Q9HAP6 88-185, limits assumed, looked up): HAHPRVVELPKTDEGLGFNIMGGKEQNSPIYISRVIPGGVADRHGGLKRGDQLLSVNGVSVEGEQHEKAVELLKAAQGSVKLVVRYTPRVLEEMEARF

T6: RHPN1, Q8TCX5
T6 sequence (Q8TCX5 508-602, limits assumed, looked up): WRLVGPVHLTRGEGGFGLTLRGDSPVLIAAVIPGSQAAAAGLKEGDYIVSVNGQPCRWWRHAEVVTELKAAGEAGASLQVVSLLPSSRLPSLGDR

T7: APBA1_2, Q02410
T7 sequence (Q02410 742-832, limits assumed, looked up): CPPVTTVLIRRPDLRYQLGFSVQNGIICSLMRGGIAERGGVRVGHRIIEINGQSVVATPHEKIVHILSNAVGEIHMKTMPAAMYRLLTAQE

T8: NHERF3_3, Q5T2W1
T8 sequence (Q5T2W1 238-333, limits assumed, looked up): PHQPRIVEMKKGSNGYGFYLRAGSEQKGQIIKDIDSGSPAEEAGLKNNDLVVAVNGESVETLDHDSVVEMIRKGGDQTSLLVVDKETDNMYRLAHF


How the values were obtained:
Assay in all cases: holdup assay
Set-up in all cases: key: below the threshold = too weak to quantify, mostly under pKd 3.1 to 4
Settings in all cases: plain residues with an end cap or a label only (N-terminal biotin on a linker: ado-ado)
HTRA3, P83110 = target: T1, HTRA3, P83110
FRMPD3, Q5JV73 = target: FRMPD3, Q5JV73
Sequence of FRMPD3, Q5JV73 (Q5JV73 12-100): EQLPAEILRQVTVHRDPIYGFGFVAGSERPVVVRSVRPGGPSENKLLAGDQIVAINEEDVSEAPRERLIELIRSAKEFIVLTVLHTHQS

DLG4_3, P78352 = target: DLG4_3, P78352
Sequence of DLG4_3, P78352 (P78352 306-403): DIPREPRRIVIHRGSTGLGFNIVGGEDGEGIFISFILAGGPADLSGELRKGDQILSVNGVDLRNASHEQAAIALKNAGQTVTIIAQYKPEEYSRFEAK

GOPC, Q9HD26 = target: GOPC, Q9HD26
DLG1_1, Q12959 = target: DLG1_1, Q12959
GORASP1, Q9BQQ3 = target: GORASP1, Q9BQQ3
Sequence of GORASP1, Q9BQQ3 (Q9BQQ3 1-208): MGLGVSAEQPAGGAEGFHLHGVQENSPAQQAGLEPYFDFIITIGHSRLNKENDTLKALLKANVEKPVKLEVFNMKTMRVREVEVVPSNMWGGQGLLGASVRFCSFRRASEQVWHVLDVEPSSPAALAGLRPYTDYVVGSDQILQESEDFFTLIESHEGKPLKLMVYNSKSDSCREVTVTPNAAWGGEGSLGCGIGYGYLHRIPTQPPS

LIN7C, Q9NUP9 = target: T2, LIN7C, Q9NUP9
MAST2, Q6P0Q8 = target: MAST2, Q6P0Q8
Sequence of MAST2, Q6P0Q8 (Q6P0Q8 1099-1202): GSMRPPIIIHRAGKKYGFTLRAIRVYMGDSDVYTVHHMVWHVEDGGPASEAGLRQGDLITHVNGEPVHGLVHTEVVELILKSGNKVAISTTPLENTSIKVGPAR

NHERF4_4, Q86UT5 = target: NHERF4_4, Q86UT5
Sequence of NHERF4_4, Q86UT5 (Q86UT5 464-550): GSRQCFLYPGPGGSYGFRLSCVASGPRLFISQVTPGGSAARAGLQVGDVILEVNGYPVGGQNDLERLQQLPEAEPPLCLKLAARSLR

DLG2_2, Q15700 = target: DLG2_2, Q15700
Sequence of DLG2_2, Q15700 (Q15700 189-283): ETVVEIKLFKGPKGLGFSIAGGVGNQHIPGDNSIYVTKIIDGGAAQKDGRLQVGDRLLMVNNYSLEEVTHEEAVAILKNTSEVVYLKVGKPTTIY

MAGI3_2, Q5TCQ9 = target: MAGI3_2, Q5TCQ9
Sequence of MAGI3_2, Q5TCQ9 (Q5TCQ9 398-503): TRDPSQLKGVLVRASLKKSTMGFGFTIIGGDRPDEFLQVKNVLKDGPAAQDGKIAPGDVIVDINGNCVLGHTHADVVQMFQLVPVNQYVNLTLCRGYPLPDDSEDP

Inadl_1, Q8NI35 = target: Inadl_1, Q8NI35
Sequence of Inadl_1, Q8NI35 (Q8NI35 113-229): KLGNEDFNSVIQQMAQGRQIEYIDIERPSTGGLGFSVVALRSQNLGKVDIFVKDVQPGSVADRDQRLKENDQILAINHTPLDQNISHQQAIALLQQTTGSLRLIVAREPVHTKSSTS

SNTA1, Q13424 = target: T3, SNTA1, Q13424
ARHGEF12, Q9NZN5-2 = target: ARHGEF12, Q9NZN5-2
Sequence of ARHGEF12, Q9NZN5-2 (Q9NZN5 other isoform, or with tags, fused parts or gaps): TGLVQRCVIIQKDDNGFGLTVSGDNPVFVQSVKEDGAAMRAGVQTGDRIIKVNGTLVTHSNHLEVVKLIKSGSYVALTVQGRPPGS

Inadl_4, Q8NI35 = target: Inadl_4, Q8NI35
Sequence of Inadl_4, Q8NI35 (Q8NI35 547-651): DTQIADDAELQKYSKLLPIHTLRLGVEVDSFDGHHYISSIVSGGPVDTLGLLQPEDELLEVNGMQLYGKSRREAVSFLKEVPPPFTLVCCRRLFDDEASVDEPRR

FRMPD2_2, Q68DX3 = target: FRMPD2_2, Q68DX3
Sequence of FRMPD2_2, Q68DX3 (Q68DX3 944-1038): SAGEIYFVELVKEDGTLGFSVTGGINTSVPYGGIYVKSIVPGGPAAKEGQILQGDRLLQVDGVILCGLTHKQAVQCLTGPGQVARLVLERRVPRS

Inadl_6, Q8NI35 = target: Inadl_6, Q8NI35
Sequence of Inadl_6, Q8NI35 (Q8NI35 1058-1167): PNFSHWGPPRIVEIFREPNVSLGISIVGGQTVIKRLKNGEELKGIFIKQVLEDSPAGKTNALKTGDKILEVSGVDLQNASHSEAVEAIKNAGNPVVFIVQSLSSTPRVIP

MAGI2_3, Q86UL8 = target: MAGI2_3, Q86UL8
Sequence of MAGI2_3, Q86UL8 (Q86UL8 600-682): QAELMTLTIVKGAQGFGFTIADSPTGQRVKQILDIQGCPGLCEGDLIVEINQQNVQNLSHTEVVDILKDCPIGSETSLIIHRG

DLG3_3, Q92796 = target: T4, DLG3_3, Q92796
Inadl_8, Q8NI35 = target: Inadl_8, Q8NI35
Sequence of Inadl_8, Q8NI35 (Q8NI35 1425-1530): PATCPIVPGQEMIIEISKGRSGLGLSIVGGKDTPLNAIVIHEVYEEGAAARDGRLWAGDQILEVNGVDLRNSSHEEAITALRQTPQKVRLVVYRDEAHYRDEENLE

MAGI1_2, Q96QZ7 = target: MAGI1_2, Q96QZ7
Sequence of MAGI1_2, Q96QZ7 (Q96QZ7 456-580): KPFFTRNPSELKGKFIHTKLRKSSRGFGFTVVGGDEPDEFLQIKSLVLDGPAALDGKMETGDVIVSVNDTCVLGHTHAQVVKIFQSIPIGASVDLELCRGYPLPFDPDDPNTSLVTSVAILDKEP

LNX1_2, Q8TBB1 = target: LNX1_2, Q8TBB1
Sequence of LNX1_2, Q8TBB1 (Q8TBB1 371-470): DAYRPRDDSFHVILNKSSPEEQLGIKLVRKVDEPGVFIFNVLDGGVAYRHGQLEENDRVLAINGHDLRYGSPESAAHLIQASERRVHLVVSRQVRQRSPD

PARD3_3, Q8TEW0 = target: PARD3_3, Q8TEW0
Sequence of PARD3_3, Q8TEW0 (Q8TEW0 582-685): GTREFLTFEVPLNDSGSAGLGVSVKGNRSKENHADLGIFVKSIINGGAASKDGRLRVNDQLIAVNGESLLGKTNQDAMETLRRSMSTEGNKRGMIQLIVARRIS

LIN7B, Q9HAP6 = target: T5, LIN7B, Q9HAP6
RHPN1, Q8TCX5 = target: T6, RHPN1, Q8TCX5
LNX1_3, Q8TBB1 = target: LNX1_3, Q8TBB1
Sequence of LNX1_3, Q8TBB1 (Q8TBB1 500-596): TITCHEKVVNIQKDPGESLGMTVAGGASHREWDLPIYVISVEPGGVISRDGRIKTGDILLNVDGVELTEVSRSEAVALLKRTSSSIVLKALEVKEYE

FRMPD2_1, Q68DX3 = target: FRMPD2_1, Q68DX3
Sequence of FRMPD2_1, Q68DX3 (Q68DX3 770-861): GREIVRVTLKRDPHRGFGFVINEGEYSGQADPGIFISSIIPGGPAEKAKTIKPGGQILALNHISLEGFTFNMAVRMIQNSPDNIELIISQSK

GRIP2_3, Q9C0E4 = target: GRIP2_3, Q9C0E4
Sequence of GRIP2_3, Q9C0E4 (Q9C0E4 238-339): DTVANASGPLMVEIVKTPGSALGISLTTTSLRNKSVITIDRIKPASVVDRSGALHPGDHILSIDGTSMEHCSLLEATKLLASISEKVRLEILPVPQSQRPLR

Inadl_10, Q8NI35 = target: Inadl_10, Q8NI35
Sequence of Inadl_10, Q8NI35 (Q8NI35 1673-1763): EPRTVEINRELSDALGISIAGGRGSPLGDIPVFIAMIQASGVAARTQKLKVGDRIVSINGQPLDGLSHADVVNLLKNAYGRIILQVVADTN

APBA1_2, Q02410 = target: T7, APBA1_2, Q02410
NHERF3_3, Q5T2W1 = target: T8, NHERF3_3, Q5T2W1

Row | Binder | pKd (HTRA3, P83110) | pKd (FRMPD3, Q5JV73) | pKd (DLG4_3, P78352) | pKd (GOPC, Q9HD26) | pKd (DLG1_1, Q12959) | pKd (GORASP1, Q9BQQ3) | pKd (LIN7C, Q9NUP9) | pKd (MAST2, Q6P0Q8) | pKd (NHERF4_4, Q86UT5) | pKd (DLG2_2, Q15700) | pKd (MAGI3_2, Q5TCQ9) | pKd (Inadl_1, Q8NI35) | pKd (SNTA1, Q13424) | pKd (ARHGEF12, Q9NZN5-2) | pKd (Inadl_4, Q8NI35) | pKd (FRMPD2_2, Q68DX3) | pKd (Inadl_6, Q8NI35) | pKd (MAGI2_3, Q86UL8) | pKd (DLG3_3, Q92796) | pKd (Inadl_8, Q8NI35) | also measured
1 | PALKNGQYWV [CSPG4, Q6UVK1] | 5.46 | below the threshold | below the threshold | below the threshold | below the threshold | 5.29 | 4.15 | 4.07 | 4.05 | below the threshold | 4.03 | 4.09 | below the threshold | below the threshold | below the threshold | below the threshold | below the threshold | below the threshold | below the threshold | 3.5 | pKd (MAGI1_2, Q96QZ7): below the threshold; pKd (LNX1_2, Q8TBB1): 4.27; pKd (PARD3_3, Q8TEW0): 3.96; pKd (LIN7B, Q9HAP6): below the threshold; pKd (RHPN1, Q8TCX5): below the threshold; pKd (LNX1_3, Q8TBB1): below the threshold; pKd (FRMPD2_1, Q68DX3): 3.82; pKd (GRIP2_3, Q9C0E4): below the threshold; pKd (Inadl_10, Q8NI35): below the threshold; pKd (APBA1_2, Q02410): 4.67; pKd (NHERF3_3, Q5T2W1): below the threshold
2 | YAEKRMLTEV [KCNA6, P17658] | below the threshold | below the threshold | 3.74 | 3.74 | 3.91 | below the threshold | 3.52 | 5.6 | below the threshold | 4.15 | 4.62 | below the threshold | below the threshold | 4.91 | below the threshold | below the threshold | below the threshold | below the threshold | below the threshold | below the threshold | pKd (MAGI1_2, Q96QZ7): 4.54; pKd (LNX1_2, Q8TBB1): 3.51; pKd (PARD3_3, Q8TEW0): below the threshold; pKd (LIN7B, Q9HAP6): 3.65; pKd (RHPN1, Q8TCX5): 3.8; pKd (LNX1_3, Q8TBB1): below the threshold; pKd (FRMPD2_1, Q68DX3): below the threshold; pKd (GRIP2_3, Q9C0E4): below the threshold; pKd (Inadl_10, Q8NI35): below the threshold; pKd (APBA1_2, Q02410): 3.72; pKd (NHERF3_3, Q5T2W1): below the threshold
3 | FLVTEFNVML [DFNB31, Q9P202] | below the threshold | 3.97 | below the threshold | below the threshold | below the threshold | 4.32 | below the threshold | 5.15 | 4.84 | below the threshold | 3.66 | below the threshold | 3.73 | below the threshold | below the threshold | below the threshold | below the threshold | below the threshold | below the threshold | below the threshold | pKd (MAGI1_2, Q96QZ7): below the threshold; pKd (LNX1_2, Q8TBB1): below the threshold; pKd (PARD3_3, Q8TEW0): 4.49; pKd (LIN7B, Q9HAP6): below the threshold; pKd (RHPN1, Q8TCX5): below the threshold; pKd (LNX1_3, Q8TBB1): below the threshold; pKd (FRMPD2_1, Q68DX3): below the threshold; pKd (GRIP2_3, Q9C0E4): below the threshold; pKd (Inadl_10, Q8NI35): below the threshold; pKd (APBA1_2, Q02410): 3.84; pKd (NHERF3_3, Q5T2W1): below the threshold
